Reference: patent US20230002466A1 (ELPIS BIOPHARMACEUTICALS, published 2023)

T1: human IL2Rα (human, UniProt P01589 22-213, limits assumed)
T1 construct: also called IL2α; CD25
T1 sequence (looked up): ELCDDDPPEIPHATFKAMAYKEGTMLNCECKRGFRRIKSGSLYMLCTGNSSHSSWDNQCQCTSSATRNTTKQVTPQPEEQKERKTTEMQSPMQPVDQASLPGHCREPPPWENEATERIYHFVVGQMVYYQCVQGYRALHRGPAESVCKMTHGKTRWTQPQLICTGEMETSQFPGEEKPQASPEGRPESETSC

T2: human IL2Rβ Fc fusion protein (human, UniProt P14784 27-239)
T2 construct: also called Recombinant Fc-tagged human IL2Rβ; not shown: Fc
T2 sequence (looked up): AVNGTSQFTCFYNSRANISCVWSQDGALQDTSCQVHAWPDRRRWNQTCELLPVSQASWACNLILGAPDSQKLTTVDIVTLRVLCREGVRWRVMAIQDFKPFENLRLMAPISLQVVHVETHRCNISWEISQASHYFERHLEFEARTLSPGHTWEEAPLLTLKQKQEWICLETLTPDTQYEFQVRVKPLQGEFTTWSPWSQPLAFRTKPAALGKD

T3: human IL2Rα Fc fusion protein (human, UniProt P01589 22-213, limits assumed)
T3 construct: also called Recombinant Fc-tagged human IL2Rα; not shown: Fc
T3 sequence (looked up): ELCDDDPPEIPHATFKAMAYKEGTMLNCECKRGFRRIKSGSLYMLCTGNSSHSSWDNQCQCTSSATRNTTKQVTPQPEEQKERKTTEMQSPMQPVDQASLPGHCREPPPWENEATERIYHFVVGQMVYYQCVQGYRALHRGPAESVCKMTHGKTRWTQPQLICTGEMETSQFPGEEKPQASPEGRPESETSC

T4: recombinant His-tagged human IL2Rβ (human, UniProt P14784 27-239)
T4 construct: also called hIL2Rβ; not shown: His tag
T4 sequence (looked up): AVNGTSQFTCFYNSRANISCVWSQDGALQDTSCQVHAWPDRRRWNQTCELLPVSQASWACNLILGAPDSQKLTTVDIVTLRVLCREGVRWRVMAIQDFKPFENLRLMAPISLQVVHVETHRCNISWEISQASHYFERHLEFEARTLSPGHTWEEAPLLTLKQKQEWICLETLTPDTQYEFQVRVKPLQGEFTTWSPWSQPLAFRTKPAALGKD


Key:
human IL2Rα [1] = target: T1, human IL2Rα; experiment: IL2Rα binding ELISA with E. coli culture supernatant of the clone; hFc bar as control (Example 2)
human IL2Rα [2] = target: T1, human IL2Rα; experiment: SPR, IL2Rα captured on Protein A chip, IL2 at 100 nM
Method: The binding kinetics of IL2Rα-reduced binding clones to IL2Rα was assessed utilizing SPR technology with a Biacore T200, software version 2.0. For each cycle, 1 ug/mL of human IL2Rα was captured for 60 seconds at a flow rate of 10 uL/min on flow cell 2 in 1×HBSP buffer on a Protein A sensor chip. 100 nM of each HIS and Flag tag purified IL2 mutant was injected onto both the reference flow cell 1 and IL2Rα captured flow cell 2 for 150 seconds at a flow rate of 30 uL/min followed by washing for 300 seconds. The flow cells were then regenerated with Glycine pH 2.0 for 60 seconds at a flow rate of 30 uL/min. A HBSP+ buffer was included with each sample as a baseline control. The assay was set up in a 96-well format. The kinetics data was analyzed with Biacore T200 evaluation software 3.0. The specific binding response unit was derived from subtraction of binding to reference flow cell 1 from IL2Rα flow cell 2 and subtraction of buffer control. […] Relative response (RU) was determined for each IL2Rα-reduced binding clone (FIG. 4, Table 3).

human IL2Rα [3] = target: T1, human IL2Rα; experiment: SPR (Biacore T200), human IL2Rα, one trace per clone drawn, concentrations not printed (Example 13)
[4] = target: T2, human IL2Rβ Fc fusion protein; experiment: ELISA, Fc-tagged receptor coated, anti-HisTag-HRP
Method: (§1) Recombinant Fc-tagged human IL2Rα and IL2Rβ were added in 25 uL of 1×PBS to wells of 384-well plate and incubated overnight at 4° C. to coat the plates. Plates were washed three times with 0.05% Tween20/1×PBS. Plates were blocked with 100 uL of SuperBlock for 1 hr at RT and then washed 3 times with 0.05% Tween20/1×PBS. IL2 mutants were diluted in 0.05% Tween 20/1×PBS from 1000 nM to 0 nM and added to plates for 2 hrs at room temperature. Plates were then washed 6 times with 0.05% Tween20/1×PBS. Anti-HisTag-HRP was diluted 1:5000 in 0.05% Tween20/1×PBS and added to plates for 1 hr at RT. Plates were then washed 6 times with 0.05% Tween 20/1×PBS, and TMB was added to develop blue color. Reactions were stopped with 2N […] and light absorbance at 450 nm was read on a BioTek plate reader.

[5] = target: T3, human IL2Rα Fc fusion protein; experiment: ELISA, single point, Fc-tagged human IL2Rα coated, anti-His-HRP; concentration not printed (Example 14)
Method: as §1

[6] = target: T4, recombinant His-tagged human IL2Rβ; experiment: SPR (Biacore T200): Fc fusion captured on anti-hFc chip, IL2Rβ-HIS injected in 2-fold dilutions from 100 nM
Method: Binding kinetics of monovalent IL2Rβ Fc fusion proteins have been analyzed by SPR technology with Biacore T200. Briefly, anti-hFc antibody was immobilized on flow cell 1 and 2. For each cycle, 1 ug/mL of IL2 Fc fusion protein was captured for 60 seconds at flow rate of 10 ul/min on flow cell 2 in 1×HBSP buffer on anti-hFc immobilized chip. 100 nM IL2Rα-HIS tagged or IL2Rβ-HIS tagged was 2-fold serial diluted and injected onto both reference flow cell 1 and IL2 Fc fusion protein were captured at flow cell 2 for 150 seconds at flow rate of 30 ul/mins. 300 seconds wash was applied after the last injection. The assay was set up with 8 serial diluted concentration points in 96 well format. The kinetics data was analyzed with Biacore T200 evaluation software 3.0. The specific binding response unit was derived from subtraction of binding to reference flow cell 1 from target flow cell 2 (FIGS. 39A-39D).

Row | Binder | RU (at 100 nM) (human IL2Rα [2]) [RU] | Relevant binding to WT IL2 (%) (human IL2Rα [2]) | binding result (human IL2Rα [1]) | also measured
1 | EP340 (ligand, not shown: His and Flag tags) APTSSSTKKTQLQLEHLLLDLQMILNGINNYKNPLLTDMLTRKFYMPKKATELKHLQCLEEELKPLEEVLNLAQSKNFHLTPRDAIDNIRVIILELKGSETTFMCEYADETATIVEFLNRWITFCQSIISTLT | – | – | – | binding result (human IL2Rα [3]): no binding (tested: not printed); EC50 [4]: 185 nM; binding result [5]: no binding (tested: not printed)
2 | EP214/EP215 (Fc fusion) APTSSSTKKTQLQLEHLLLDLQMILNGINNYKNPKLTEMLTFKFYMPKKATELKHLQCLEEELKPLEEVLNLAQSKNFHLTARDAVDNMRVIIQELKGSETTFMCEYADETATIVEFLNRWITFSQSIISTLTESKYGPPCPPCPAPEFEGAPSVFLFPPKPKDTLMISRTPEVTCVVVDVSQEDPEVQFNWYVDGVEVHNAKTKPREEQFQSTYRVVSVLTVLHQDWLNGKEYKCKVSNKGLPSSIEKTISKAKGQPREPQVYTLPPCQEEMTKNQVSLWCLVKGFYPSDIAVEWESNGQPENNYKTTPPVLDSDGSFFLYSALTVDKSRWQEGNVFSCSVMHEALHNHYTQKSLSLSLGK Fc: ESKYGPPCPPCPAPEFEGAPSVFLFPPKPKDTLMISRTPEVTCVVVDVSQEDPEVQFNWYVDGVEVHNAKTKPREEQFQSTYRVVSVLTVLHQDWLNGKEYKCKVSNKGLPSSIEKTISKAKGQPREPQVCTLPPSQEEMTKNQVSLSCAVKGFYPSDIAVEWESNGQPENNYKTTPPVLDSDGSFKLVSRLTVDKSRWQEGNVFSCSVMHEALHNHYTQKSLSLSLGK | – | – | – | Kd [6]: 5.79 nM; koff [6]: 0.00883 s⁻¹; kon [6]: 1.53e+06 M⁻¹ s⁻¹

Further lines, with some results ahead:

Row | RU (at 100 nM) (human IL2Rα [2]) [RU] | Relevant binding to WT IL2 (%) (human IL2Rα [2]) | Binder | binding result (human IL2Rα [1]) | also measured
3 | 2.6 | 1.83 | EP126 (ligand) APTSSSTKKTQLQLEHLLLDLQMILNGINNYKNPKLTNMLTFKFSMPKKATELKHLQCLEEELKPLEEVLNLAQSKNFHLRPRDLISNINVIVLELKGSETTFMCEYADETATIVEFLNRWITFSQSIISTLT | no binding (tested: supernatant, concentration not given) | –
4 | 2.5 | 1.76 | EP122 (ligand) APTSSSTKKTQLQLEHLLLDLQMILNGINNYKNPKLTVMLTFKFPMPKKATELKHLQCLEEELKPLEEVLNLAQSKNFHLRPRDLISNINVIVLELKGSETTFMCEYADETATIVEFLNRWITFSQSIISTLT | no binding (tested: supernatant, concentration not given) | –
